# According to publication PMC6300691, “Enhancement of Heat Stability and Kinetic Parameters of the Maize Endosperm ADP-Glucose Pyrophosphorylase by Mutagenesis of Amino Acids in the Small Subunit With High B Factors” (Frontiers in Plant Science, 2018):
# Positions count from the first letter of the chain named. Names may count otherwise. Read-outs that look alike come from different tables or passages of the source.
# B1: wt: wild type maize endosperm AGPase: SH2 large subunit with BT2 small subunit, expressed in E. coli (protein, UniProt P55241 46-516; P55241 46-516, looked up)
# Glucose-1-phosphate … 1: FGGRVAATTQCILTSDACPETLHSQTQSSRKNYADANRVSAIILGGGTGSQLFPLTSTRATPAVPVGGCYRLIDIPMSNCFNSGINKIFVMSQFNSTSLNRHIHRTYLEGGINFADGSVQVLAATQMPEEPAGWFQGTADSIRKFIWVLEDYYSHKSIDNIVILSGDQLYRMNYMELVQKHVEDDADITISCAPVDESRASKNGLVKIDHTGRVLQFFEKPKGADLNSMRVETNFLSYAIDDAQKYPYLASMGIYVFKKDALLDLLKSKYTQLHDFGSEILPRAVLDHSVQACIFTGYWEDVGTIKSFFDANLALTEQPSKFDFYDPKTPFFTAPRCLPPTQLDKCKMKYAFISDGCLLRECNIEHSVIGVCSRVSSGCELKDSVMMGADTYETEEEASKLLLAGKVPVGIGRNTKIRNCIIDMNARIGKNVVITNSKGIQEADHPEEGYYIRSGIVVILKNATINDGSVI
# Glucose-1-phosphate … 2: B1 Glucose-1-phosphate … 1
# modifications: expressed in E. coli
# B2: P372A: SH2 large subunit variant P372A (protein, UniProt P55241 46-516, looked up, variant P372A)
# Glucose-1-phosphate …: B1 Glucose-1-phosphate … 1 with P327A
# B3: S444R: SH2 large subunit variant S444R (protein, UniProt P55241 46-516, looked up, variant S444R)
# Glucose-1-phosphate …: B1 Glucose-1-phosphate … 1 with S399R
# B4: S444A: SH2 large subunit variant S444A (protein, UniProt P55241 46-516, looked up, variant S444A)
# Glucose-1-phosphate …: B1 Glucose-1-phosphate … 1 with S399A
# B5: K445R: SH2 large subunit variant K445R (protein, UniProt P55241 46-516, looked up, variant K445R)
# Glucose-1-phosphate …: B1 Glucose-1-phosphate … 1 with K400R
# B6: E438Q: SH2 large subunit variant E438Q (protein, UniProt P55241 46-516, looked up, variant E438Q)
# Glucose-1-phosphate …: B1 Glucose-1-phosphate … 1 with E393Q
# Assays:
# MP = tested on: T1, MP; experiment: Initial-rate assay without 3-PGA, ATP and G-1-P both varied (0.01-10 mM and 0.1-25 mM), global fit to a sequential mechanism.; assay type: biochemical; conditions: read-out: G-1-P Km (absence of 3-PGA)
# T1 construct: small subunit of first 198 amino acids of maize BT2 and last 277 of potato tuber small subunit, with wild type SH2
# MP + SH2-E = tested on: T2, MP + SH2-E; experiment: as above; assay type: biochemical; conditions: read-out: G-1-P Km (absence of 3-PGA)
# T2 construct: chimeric small subunit MP (maize 198 / potato 277 amino acids) with SH2-E
# maize endosperm AGPase [1] = experiment: Catalytic activity at 37 and 55°C (end point PPi assay); assay type: biochemical
# Method: Reactions proceeded for 2, 4, 6, 8, 10, and 15 min and were terminated by boiling. Reaction mixes (1300 μl) were pre-warmed to 37°C or 55°C and the assay was started with the addition of the enzyme. Assay time points (200 μl) were removed at the appropriate time and boiled for 2 min. At 37°C all reactions were linear for 15 min; however, at 55°C rates were linear for a shorter duration. A rate was only calculated if the reactions were linear for at least 10 min.
# The amount of PPi produced in the reaction was coupled to a decrease in NADH concentration. Coupling reagent contained 25 mM imidazole pH 7.4, 4 mM MgCl2, 1 mM EDTA, 0.2 mM NADH, 0.725 U aldolase, 0.4 U triose phosphate isomerase, 0.6 U glycerophosphate dehydrogenase, 1 mM fructose 6-phosphate and 0.8 μg purified PPi-PFK per reaction. Blank samples contained complete reaction mixtures minus the enzyme. Change in absorbance between the blank and the reaction was used to calculate the amount of PPi produced. All reactions were linear with time and enzyme concentration.
# maize endosperm AGPase [2] = experiment: 3-PGA activation constant (Ka), Vmin and Vmax; assay type: biochemical; conditions: change in activity from Vmin to total velocity with 3-PGA; substrates 2 mM
# Description: All reactions were developed as above.
# maize endosperm AGPase [3] = experiment: Kinetic values in the absence of 3-PGA; assay type: biochemical
# Description: (1) v=VAB/(KiaKmb+KmbA+KmaB+AB
# maize endosperm AGPase [4] = experiment: Pi inhibition in the presence of 3-PGA; assay type: biochemical
# Description: (§1) (2) v=Vm(S/Ks+(βSI)/(αKiKs))/(1+S/Ks+I/Ki+SI/αKiKs)P-MT
# (§2) (3) v=Vm(S/Ks)/(1+S/Ks+I/Ki+SI/αKiKs)L-MT
# maize endosperm AGPase [5] = experiment: Pi inhibition in the absence of 3-PGA; assay type: biochemical; conditions: for α / β: absence of 3-PGA
# Description: as §1, §2
# maize endosperm AGPase [6] = conditions: cited from earlier work
# maize endosperm AGPase [7] = biological target: maize endosperm AGPase; design: method as in Georgelis et al., 2009; Boehlein et al., 2015; conditions: ref Georgelis et al., 2009; Boehlein et al., 2015; cited from earlier work
# E. coli AC70R1-504 = conditions: 2015, cited from earlier work
# maize endosperm AGPase [8] = conditions: ref Boehlein et al., 2015; cited from earlier work
# [9] = growth at 37 and 42°C, SH2 variants, ref Boehlein et al.
molecule,measurement,setting,value
"O=P(O)(O)O[C@H]1O[C@H](CO)[C@@H](O)[C@H](O)[C@H]1O [G-1-P, glucose-1-phosphate]",Km,MP,11.9 ± 3 mM
same,Km,MP + SH2-E,0.09 ± 0.008 mM
B1,Activity at 37°C,"maize endosperm AGPase [1]; 37°C, 5 mM ATP, 2 mM G-1-P, 2.5 mM 3-PGA, purified enzyme from E. coli",5415 ± 268
same,activity at 55°C (in words),maize endosperm AGPase [1]; 55°C,not active
same,Vmax,maize endosperm AGPase [2],6352 ± 540
same,reduction of the Km values of both substrates by binding of 3PGA,maize endosperm AGPase [3]; Km without 3PGA versus with 3PGA,over 50 fold
same,Km,"maize endosperm AGPase [3]; absence of 3-PGA, read-out: ATP Km",~4 mM
same,Km,maize endosperm AGPase [3]; read-out: G-1-P Km (absence of 3-PGA),3 mM
same,α,maize endosperm AGPase [4]; varied substrate ATP,4.61 ± 0.07
same,β,maize endosperm AGPase [4]; varied substrate ATP,0.83 ± 0.037
same,α,maize endosperm AGPase [4]; varied substrate G-1-P,0.90 ± 0.012
same,β,maize endosperm AGPase [4]; varied substrate G-1-P,0.52 ± 0.023
same,Ki for Pi higher in the absence of 3PGA compared to the presence of 3PGA,maize endosperm AGPase [5],5–10 fold
same,α,maize endosperm AGPase [5]; varied substrate ATP,0.063 ± 0.034
same,β,maize endosperm AGPase [5]; varied substrate ATP,0.52 ± 0.17
same,α,maize endosperm AGPase [5]; varied substrate G-1-P,0.095 ± 0.065
same,β,maize endosperm AGPase [5]; varied substrate G-1-P,0.92 ± 0.31
B2,effect on 3-PGA Ka (in words),"maize endosperm AGPase [6]; ref Georgelis et al., 2009, Boehlein et al., 2015",Increased 3-PGA Ka
same,effect on Ki for phosphate (in words),maize endosperm AGPase [7],decreased Ki for phosphate
same,glycogen staining (in words),"E. coli AC70R1-504; ref Georgelis et al., 2009, Boehlein et al.",reduced glycogen staining
B3,activity at 37° (in words),maize endosperm AGPase [8],had higher activity at 37°
same,glycogen staining (in words),E. coli AC70R1-504; [9],Stained darker at 37 and 42°
B4,effect on 3-PGA Ka (in words),"maize endosperm AGPase [6]; ref Boehlein et al., 2014",Did not alter 3-PGA Ka
B5,glycogen staining (in words),E. coli AC70R1-504; [9],Stained darker at 37 and 42 °C
B6,effect on 3-PGA Ka (in words),"maize endosperm AGPase [6]; ref Georgelis et al., 2009",Did not alter 3-PGA Ka
